Measurements published in article PMC12298772.

Target: PUUV SP-mEGFP-Gc∆CT (Gc devoid of the cytoplasmic tail, labelled with mEGFP) (Puumala orthohantavirus (PUUV), strain Sotkamo/V-2969/81)
Experiment: Number and Brightness (N&B) fluorescence fluctuation microscopy

PUUV SP-mEGFP-Gc∆CT (Gc devoid of the cytoplasmic tail, labelled with mEGFP) (domain or fragment)
average multimerization: 1.4 | fraction of monomers (assuming a monomer-dimer equilibrium): 75 mol%
